Earlier results on 1 substance are cited in article PMC11301627.

What is called pKa is the pH at which an ionisable group is half protonated.

The target in the data set is Asp133 (UniProt position 133, SNFHFDTTAAH). The experiment in a line: kinetics. To be noted: wild-type enzyme, steady-state reaction with L-Trp.

On to “Tryptophan indole-lyase (TIL, tryptophanase) (Proteus vulgaris)”, for which the pKa is given as 5.3.
